# Key:
# [1] = target: T1, His6-Smt3-Parkin (full-length human parkin, tag kept, labelled with RED-tris-NTA) (human, UniProt O60260 1-465, RED-tris-NTA dye bound to the His tag (Monolith His-Tag Labelling Kit RED-tris-NTA 2nd Generation)); assay: MST; His6-Smt3-Parkin constructs labelled with RED-tris-NTA; unlabelled partner in up to 16 1:1 serial dilutions (from 50 µM for Miro1^181-579); 25°C; PBS-T (PBS 1x, 0.05% Tween 20); 1:1 fit; settings: both partners purified
# T1 construct: human parkin, full-length; Used for MST only; source: E. coli BL21(DE3), purified; not shown: His6, N-terminal, kept; Smt3, N-terminal, kept
# [2] = target: T2, human parkin, full-length, affinity tag cleaved (human, UniProt O60260 1-465); assay: MST + ITC; parkin with CISD1 (Supplementary Fig. S2); the text names 'either MST or ITC' and does not tell which was used for CISD1; settings: both partners purified
# T2 construct: human parkin (RBR E3 ubiquitin ligase), full-length; the MST used the uncleaved His6-Smt3 form; also called unphosphorylated parkin; source: E. coli BL21(DE3), purified (Ni-NTA HisTrap FF, Ulp1 cleavage, gel filtration); not shown: His6, N-terminal, cleaved; Smt3, N-terminal, cleaved
# T2 sequence (O60260 whole entry): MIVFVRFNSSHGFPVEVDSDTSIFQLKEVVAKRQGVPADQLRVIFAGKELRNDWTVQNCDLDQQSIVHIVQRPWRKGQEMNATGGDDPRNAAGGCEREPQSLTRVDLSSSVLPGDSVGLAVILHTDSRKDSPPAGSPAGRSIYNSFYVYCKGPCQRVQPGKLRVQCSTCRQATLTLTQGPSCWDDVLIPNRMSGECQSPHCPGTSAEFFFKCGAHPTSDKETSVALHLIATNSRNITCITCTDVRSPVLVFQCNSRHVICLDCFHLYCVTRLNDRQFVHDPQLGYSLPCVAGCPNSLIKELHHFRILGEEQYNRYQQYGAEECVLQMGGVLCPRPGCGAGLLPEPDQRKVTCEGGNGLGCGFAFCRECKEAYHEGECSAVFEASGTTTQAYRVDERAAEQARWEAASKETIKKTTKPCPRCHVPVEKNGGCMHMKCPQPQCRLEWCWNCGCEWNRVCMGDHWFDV
# T1 sequence (O60260 whole entry): as above
Kd [1],Kd [2],Binder
> 100 µM,–,"Miro1^181-579 (near full-length, soluble construct of Miro1 that lacks only its GTPase1 domain) (domain or fragment, human, UniProt Q8IXI2 181-579, looked up, source: E. coli BL21(DE3); purified as previously described by Kumar et al. [11]) MKPACIKALTRIFKISDQDNDGTLNDAELNFFQRICFNTPLAPQALEDVKNVVRKHISDGVADSGLTLKGFLFLHTLFIQRGRHETTWTVLRRFGYDDDLDLTPEYLFPLLKIPPDCTTELNHHAYLFLQSTFDKHDLDRDCALSPDELKDLFKVFPYIPWGPDVNNTVCTNERGWITYQGFLSQWTLTTYLDVQRCLEYLGYLGYSILTEQESQASAVTVTRDKKIDLQKKQTQRNVFRCNVIGVKNCGKSGVLQALLGRNLMRQKKIREDHKSYYAINTVYVYGQEKYLLLHDISESEFLTEAEIICDVVCLVYDVSNPKSFEYCARIFKQHFMDSRIPCLIVAAKSDLHEVKQEYSISPTDFCRKHKMPPPQAFTCNTADAPSKDIFVKLTTMAMY"
–,> 100 µM,"human CISD1 (residues 32-108), entire extramembranous portion (domain or fragment, UniProt Q9NZ45 32-108, looked up, human CISD1 (MitoNEET) lacking only its transmembrane domain, residues 32-108; also called MitoNEET; source: E. coli BL21(DE3) with FeCl3 in the media, purified (Ni-NTA, TEV cleavage, gel filtration); not shown: His6, N-terminal, cleaved) KRFYVKDHRNKAMINLHIQKDNPKIVHAFDMEDLGDKAVYCRCWRSKKFPFCDGAHTKHNEETGDNVGPLIIKKKET"

# Source: PMC9022993, “Distinct phosphorylation signals drive acceptor versus free ubiquitin chain targeting by parkin” (Biochemical Journal, 2022)
